1 molecule from article PMC4108476 can be followed below.

The data set has as its target T1, [2Fe-2S]-IscR wild type (Escherichia coli, UniProt P0AGK8 1-162).
T1 sequence: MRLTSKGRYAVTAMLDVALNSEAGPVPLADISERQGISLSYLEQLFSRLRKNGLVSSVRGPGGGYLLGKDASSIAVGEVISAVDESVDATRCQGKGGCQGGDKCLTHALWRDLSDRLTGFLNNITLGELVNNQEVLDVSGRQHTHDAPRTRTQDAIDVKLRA
Nature of the data set: fluorescence anisotropy. On the technique in general: Polarisation of emitted light reports the rotation of a fluorescent probe.

B1: PiscR site B 30-mer (dsDNA)
DNA 1: AAATAGTTGACCAATTTACTCGGGAATGTC
DNA 2: GACATTCCCGAGTAAATTGGTCAACTATTT
For orientation: Kd means the constant that tells how readily two partners part at equilibrium. A low value points to a tighter complex. For the molecule B1, the equilibrium dissociation constant (Kd) was 112 ± 2 nM.
